Measurements as given in paper PMC11277083 (International Journal of Molecular Sciences, 2024).

Molecular target: ACE2 protein (recombinant human, CUSABIO no. CSB-MP866317HU) (human, UniProt Q9BYF1 18-740)
Assay: SPR; […] (50 ug/mL in sodium acetate pH 4.0, 10 uL/min, 420 s); […]; Biacore T200; […]
Conditions: both partners purified

Sequence of ACE2 protein (recombinant human, CUSABIO no. CSB-MP866317HU) (Q9BYF1 18-740): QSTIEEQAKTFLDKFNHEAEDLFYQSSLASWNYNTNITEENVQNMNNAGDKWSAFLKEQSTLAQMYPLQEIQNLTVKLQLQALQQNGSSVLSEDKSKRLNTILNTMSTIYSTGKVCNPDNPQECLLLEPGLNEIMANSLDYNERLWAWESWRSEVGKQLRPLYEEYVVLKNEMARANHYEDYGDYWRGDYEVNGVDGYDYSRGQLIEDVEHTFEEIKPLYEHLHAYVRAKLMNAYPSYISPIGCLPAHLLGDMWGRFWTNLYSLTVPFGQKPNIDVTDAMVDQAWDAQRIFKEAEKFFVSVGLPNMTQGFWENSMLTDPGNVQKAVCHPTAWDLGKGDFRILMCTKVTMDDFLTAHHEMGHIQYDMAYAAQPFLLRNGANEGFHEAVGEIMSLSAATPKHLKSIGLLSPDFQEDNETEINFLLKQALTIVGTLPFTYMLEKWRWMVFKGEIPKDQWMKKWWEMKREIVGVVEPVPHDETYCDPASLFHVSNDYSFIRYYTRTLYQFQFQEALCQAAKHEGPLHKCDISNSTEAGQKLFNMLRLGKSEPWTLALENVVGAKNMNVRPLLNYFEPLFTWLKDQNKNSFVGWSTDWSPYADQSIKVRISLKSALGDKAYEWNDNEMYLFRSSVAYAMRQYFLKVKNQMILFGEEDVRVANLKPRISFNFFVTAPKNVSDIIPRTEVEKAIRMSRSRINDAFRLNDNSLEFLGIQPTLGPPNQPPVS

Q: Which results are given for KKCHFWPFPW [KKCH peptide]?
A: Kd: 624 nM; koff: 0.0958 s⁻¹; kon: 154000 M⁻¹ s⁻¹
